This experiment deals with EGFR co-transfected into Q293 cells (UniProt P00533). In words: co-IP.

Substance “TROY CRD2 (from UniProt Q9NS68 30-423) (receptor)” came in with an amount in the anti-EGFR immunoprecipitate, normalized to wild type TROY of 0.43.
In the case of “TROY CRD3 (from UniProt Q9NS68 30-423) (receptor)” it was 0.83.

(Values after article PMC5805628.)
